Reference: the nanobody polyreactivity screen of Harvey et al. (2022)

Experiment: yeast display, Sf9 membrane polyspecificity reagent, FACS + sequencing; frameworks hold sequencing errors
In short: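 A nanobody's polyreactivity label depends on the gate it was sorted from. Yeast display cells were stained with 10% biotinylated, detergent-solubilized Sf9 membrane reagent for 1 hour at 4 °C, enriched on streptavidin microbeads and sorted by FACS. The low and high (top ~1%) gates were set on anti-HA fluorescence for expression and streptavidin fluorescence for reagent binding.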

QVQLVESGGGLVQAGGSLRLSCAASGITFIYYMGWYRQAPGKERELVAAITWSGGSTYYADSVKGRFTISRDNAKNTVLLQMNSLKPVDNAVYYCAAVRRAEEYDYWGQGTQVTVSS
polyreactivity (PSR sort gate): low polyreactivity

QVQLVESGGGLVQAGGSLRLICAASGIIFDPNAMGWYRQAPGKERELVAAITHTGSTSYADSVKGRFTISRDNAKNTVYLQMNRLNPEDTAVYYCAAGTWVRAWYRYWYDFEYWGQGTQVTVSS
polyreactivity (PSR sort gate): high polyreactivity

QVQLVESGGGLLQAGGSLRLSCAASGSIFSGYAMGWYRQAPGKERELVAAISGSGGSTFYADSVKGRFTISRDNAKNTVYLQMNSLKPEDTAVYYCAARRIAPYGRYDYWGQGTQVTVSS
polyreactivity (PSR sort gate): low polyreactivity

QVQLVESGGGLVQAGGSLRLSCAASGSTIVPNTMGWYRQAPGKERELVAGITSGGSTYYADSVKGRFTISRDNAKNTVYLQMNSLKPEDTAVYYCAADDGSTANEKLIHEYNYWGQGTQVTVSS
polyreactivity (PSR sort gate): low polyreactivity

QVQLVESGGGLVQAGGSLRLSCAASGRIFAFNAMGGYRQAPGKERELVAAITGRGGRTYYADSVKGRFTISRDHAKNTVYLQMNSLKPEDTAVYYCAAQRYINYDYWGQGTQVTVSS
polyreactivity (PSR sort gate): high polyreactivity

QVQLVESGRGLVQAGGSLRLSCAASGSIFKNYAMGWYRQAPGKERELVAAITRGTYYADSVKGRFTISRDNAKNTVYLQMNSLKPEDTAVYDCYREYWGRGYYRVRGEYDYWGQGTQVTVSS
polyreactivity (PSR sort gate): low polyreactivity

QVQLVESGGGLVQAGGSLRLSCAASGRIFIRYAMGWYRQAPGKERELVAGITSGGDTYYADSVKGRFTISRDNAKNTVYLQMNSLKPEDTAVYYCARVRYGRMDYWGQGTQVTVSS
polyreactivity (PSR sort gate): high polyreactivity

QVQLVESGGGLVQAGGSLRLSCAASGITFYPYAMGWYRQAPGTERELVAAITGSGGRTYYADSVKGRFTISRDNAKNTVYLQMNSLKPEDTAVYYCAKVARYPDMGYWGQGTQVTVSS
polyreactivity (PSR sort gate): high polyreactivity

QVQLVESGGGLVQAGGSLRLSCAASGSIFTPYAMGWYRQAPGTEREFVAVISWRVDSTYYADSVKGRFTISRDNAKNTVYLQMNSLKPEDTAVYYCAAKSYLLAPFGSGNRWSRYDYWGQGTQVTVSS
polyreactivity (PSR sort gate): high polyreactivity

QVQLVESGGGLVQAGGSLRLSCAASGRTFQFYAMGWYRQAPGKERELVAAIDLRGGSTYYADSVKGRFTISRDNAKNTVYLQMNSLKPEDTAVYYCNATRSKFGYFYRYDYWGQGTQVTVSS
polyreactivity (PSR sort gate): low polyreactivity

QVQLVESGGGLVQAGGSLRLSCAASGSTFYGYAMGGNRQAPGKERELVAAMTWGGASTYYADSVKGRFTIARDNAKNTVYLQMNSLKPEDTAVYYCATVGWGYQPYPFGMDYWGQGTQVTVSS
polyreactivity (PSR sort gate): low polyreactivity

QDQLVESGRGLVQAGGSLRLSCAASGSINATNAMGWYRQAPGKERELVPSISYSVSRTYYADSVKGRFTISRDNAKNTVYFQMNSLTPEDTAVYYCAVRQVNWFGIGYEDDYCGQGTQVTVSS
polyreactivity (PSR sort gate): low polyreactivity

QVQLVESGGGLVQAGGSLRLSCAASGSIFSGYVMGWYRQSPGKESELDAAISYSGGSKYYADSVKGRFTISRDNAKNTVYLQMNSLKPEDTAVYFCAAPGWLSQPRYRGYDYWGQGTQVSVSS
polyreactivity (PSR sort gate): high polyreactivity

QVQLVESGGGLVQAGGSLRLSCAASGSTFGGYAMGWYRQAPGKERELVAGISSGTSTYYADSVKGRFTISRDNAKNTVYLQMNSLKPEDTAVYYCAKYSYYRKLGYWGQGTQVTVSS
polyreactivity (PSR sort gate): high polyreactivity

QVQLVESGGGLDQAGGSLRLSSAASGLTFFSEYAMGLYRQPPGIERELVASIDWSGDSTYYADSVKGRFTISRDNAMKTVYLQMNSLKPEYTAVYYCAKDYSTEISQEYYYWVQGTQVTVSS
polyreactivity (PSR sort gate): high polyreactivity

QVQHEESGGGLVQAGGSLRLSCAASGRIFHFNTMGWYRQAPGKERELVAAITSSGGSTNYADSVKGRFTISRDNAKNTVYLQMNSLKPEDTAVYYCNADTGAADYFDFDYWGQGTQVTVSS
polyreactivity (PSR sort gate): low polyreactivity

QVQRVESGGGLVQAGGSLRLSCAASGFIFIRNAMGWYRQAPGKERELVAAISSGGRTYYADSVKGRFTISRDNAKNTVYLQMNSLQPEDTAVYYCATRPHRPRGHSVGQYDYWGQGTQVTVSS
polyreactivity (PSR sort gate): high polyreactivity

QVKLVESGGGLVMAGGSLRLSCAASGRTFWIYAMGRYRQAPGKERELVAAISQSSSITYYADSVKRRFTFSRDNAKNTVYLQMNSLKPEDTEGYYCNSDVLRYQGSWLEYWGQGTQVTVSS
polyreactivity (PSR sort gate): low polyreactivity

QVQLVESGGGLVQAGGSLRLSCAASGRIFNAYAMGWYRQAPGKERELVASISWSGGSTFYADSVKGRFTISRDNAKNTVYLQMNSLKPEDTAVYYCNADRRSSRHWWSITAYEYWGQGTQVTVSS
polyreactivity (PSR sort gate): high polyreactivity

QVQLVESGGGLVQAGGSLRLSCAASGFIFADYTMGWYRQAPGKERELVAAITWSGDSTYYADSVKGRFTISRDNAKNTVYLQMNSLKPEDTAVYYCNAVNDWYYAYYGVTSFRSYDYWGQGTQVTVSS
polyreactivity (PSR sort gate): low polyreactivity

QVQLVESGGGLVQAGGSLRLSCAASGSIIVRNAMGWYRQAPGKERELVAAISKSGGSTYYADSVKGRFTISRDNAKNTVYLQMNSLKPEDTAVYYCAVYPRSTLRTFQRDYWGQGTQVTVSS
polyreactivity (PSR sort gate): high polyreactivity

QVQLVESGGGLVQAGGSLRLSCGASGRTVGGNAMGWERPAPGQERELVAAITNSASTYADSVKGRFTISRDNAQNTVYLLMNSLKPEDTAGSYCAARTLPRVYRNTFGYWGQGTQVTVSS
polyreactivity (PSR sort gate): low polyreactivity

QVQLVESGGGLVQAGGSLSLSCAASGITFSYYAMGWYRQAPGNERELVASINFSGGSTSYADSVKGRFTISRDNAKITVYFQMNSLKPEDPAVYYCAAQIWSKDEKHDYWGQGTKVTVSS
polyreactivity (PSR sort gate): high polyreactivity

QVQLVESGGGLVQAGGSLRLSCAASGRTFARYAMGWYRPAPGKERELVAAISSSGVSSYYADSVKGRFTISRDNAKNTVYLQMNSLKPDDTAVYYCVTYRNWWYDYWGQGTQVTVSS
polyreactivity (PSR sort gate): high polyreactivity

QVQLVESGGGLVQAGGSLRLSCAASGLTFDGNTMGWYRQAPGKERELVAAISIDGGNTYADSVKGRFTISRDNAKNTVYLQMNSLKPEDTAVYYDYWGQGTEVTVSS
polyreactivity (PSR sort gate): low polyreactivity

QVQLVESGGGLVQAGGSLRLSCAASGFNFGGYPMGWYRQAPGKERELVADISKRGGSTFYADSVKGRFTISRDNAKNTVYLQMNSLKPEDTAVYYCATRFFYPYWGVYEYYYWGQGTQVTVSS
polyreactivity (PSR sort gate): high polyreactivity

QVQLVESGGGLVQAGGSLRLSCAASGRTFRAYAMGWNRQPPGKVRELVAVISLSGGSTYYADSVKGRFTISRDNAKNTVYLQMNSLKPEDTAVYYCAAVDWSYTGWRYDYWGQGTQVTVSS
polyreactivity (PSR sort gate): low polyreactivity

QVQLVESGGGLVQAGGSLRLSWAASGFIFAYYAMGWYTPAPGKERELVAAISKRGGSTYYADSVKGRFTISRDNAKNTVYLQMNSLKPEDTAVYYCAADGHGGYGYWGQGTQVTVSS
polyreactivity (PSR sort gate): high polyreactivity

QVQLVESGVGLVQAGGSLRLSCAASGRIFIKYAMGWYRQAPGKEREFVAAISGRGGSTYYADSVKGRFTISRDNAKNTVYLQMNSLKPEDTAFYYCAKRFFYSGTAAGMYYWGQGTQVTVSS
polyreactivity (PSR sort gate): high polyreactivity

QVQLVESGGGLVQAGGSLRLSCAASGFTFEYYAMGWSRQAPGKETELVATITWNGGSTYYADSVKGRFTISRDNAKNTVYLQMNSLKPVDTAVYYCAADEQAYYVRRFDYWGQCTQVTVSS
polyreactivity (PSR sort gate): low polyreactivity

QVQLVESGGGLVHAGGSLRLSCASSGSTFRPYAMGCYRQAPGKERELVAAIRKIGGRTYYADSVKGRFTISRDNANNTVYLQMNSLKPEDTAVYNCNKRIGGGVHAYNYWGQGTQVSVSS
polyreactivity (PSR sort gate): low polyreactivity

QVQHVESGGGLVQAGGSLRLSCAASGRIFGTYAMGWYRQAPGKERELVAAISWSGGRTYYADSVKGRFTISRDNAKNTVYLQMNSLKPEHTAVYYCAARGVPRDGRHHYRYDYWGQGSQVTVSS
polyreactivity (PSR sort gate): high polyreactivity

QVQLVESGGGLVQAGGSLRLSCAASGSTFVQYAMGWYRQAPGKERELVAAITRSGGSTYYADSVKGRFTISRDNAKNTVYLQMNSLKPEDTAVYYCAARHYRSRDGYWGQGTQVTVSS
polyreactivity (PSR sort gate): high polyreactivity

QLQLVESGVGLVQAGGSLRLSCAASGSILPVYPMGWYRQAPGKERELVAAISVSGGSTSYADSVKGRFTISRDNAKNTVYLQMNSLKPEDTAVYYCAARYRYSYGYWGQGSQVTVSS
polyreactivity (PSR sort gate): high polyreactivity

QVQLVESGGGLVQAGGSLRLSCAASGRIFAKNAMGWYRQAPGKERELVAAISGSGGSTYYADSVKGRFTISRDNAKNTVYLQMNSLKPDDTAVYYCAATRGPNYRNGYWGQGTQVTVSS
polyreactivity (PSR sort gate): high polyreactivity

QVQLVESGGGLVQAGGSLRLSCAASGSTLAKYAMGWYRQAPGKERELVAAISWSGGRTYYADSVKGRFTISRDNAKNTVYLQMNSLKPEDTAVYYCAARARSSRTYHDDYWGQGTQVTVSS
polyreactivity (PSR sort gate): high polyreactivity

QVQLVESGGGLVQAGGSLRLSCAASGFTFSSYAMGWYRQAPGKERELVAAISRSGGSTYYADSVKGRFTISRDNAKNTVYVQMNSLKPEDTAVYYCAARFFARHYYWGQGTQVTVSS
polyreactivity (PSR sort gate): high polyreactivity

QVHLVESGGCLVQAGGSLRLSGAASGGNFSTYAMGWYRQAPGKERELVSSITERGGSTYYADSVKGRFTISRDNAKNTFDLQMNSLKPEDTAVYYCAADWDASWWLVPTSSYDYWGEGTQVTVSS
polyreactivity (PSR sort gate): low polyreactivity

QVQLVESGGGLVQAGGRLRLICAASGRTSRIYAMGWYRQAPGKWELVAAISGSGSRTYYADSVKGRFTISRDNAKNTVYFQMNSLKPEDTAVSYCNARYWYRHHPPEFDYWGQGTQVTVSS
polyreactivity (PSR sort gate): high polyreactivity

QVQLVESGGGLVQAGGSLRLSCAASGLTFYSYAMGWYSPAPGKERELVAAITSSGSITYYADSVKGRFTISRDNAKNTVYLQMNSLKPEDTAVYYCAARPYRVRGQRFEGNYWGQGTQVTVSS
polyreactivity (PSR sort gate): high polyreactivity

QVQLVESGGGLVQAGGSLRLSCAASGSIFKHNAMGWYRQAPGKERELVATISESGGSTYYADSVKGRFTISRDNAKNTVYLQMNSLKPEDTAVYYCNTDYDYGWWDLGEYDYWGQGTQVTVSS
polyreactivity (PSR sort gate): low polyreactivity

QVQLVESGGGLVQAGGSLRLSCAASGRIFPQNAMGWYRQAPGKERELVAVITGNGSTYYADSVKGRFTISRDNAKNTVYLQMNSLKPEDTAVYYCAARVSWPYHRGARDYWGQGTQVTVSS
polyreactivity (PSR sort gate): low polyreactivity

QVQLVESGGGLVQAGGSLRLSCAASGIIFAYYAMGWYRQAPGKERELVAAMNRSGGTTYYADSVKGRFTISRDNAKNTLYLQMNSLKPEDTAVYYCNALTTWRYRYDYWGQGTQVTVSS
polyreactivity (PSR sort gate): high polyreactivity
